Columns and labels:
Assay type in all cases: cell-based
[1] = target: T1, activated form of the μ-opioid receptor (Homo sapiens, UniProt P35372); experiment: Polarization microscopy of probe in HEK293 cells, μ-opioid receptor activated by DAMGO; details: cotransfection of μ-opioid receptor plasmid and 10 μM DAMGO, excitation polarization resolved single-photon confocal microscopy
T1 construct: expressed in transfected cells; host or cells: HEK293
Protocol: (§1) Prior to microscopy observations, mammalian cells (HEK293) were cultured at 37° C. under an atmosphere of 95% air, 5% CO2, in Dulbecco's modified Eagle's medium with Glutamax I and high glucose (Life Technologies), supplemented with 10% fetal bovine serum. Cells were plated on 8-chamber microscopy slides (p-Slides, Ibidi GmbH, Germany). Transfections were carried out using 0.2 μg of plasmid DNA and Lipofectamine 2000 (Life Technologies), according to the protocol of the manufacturer. In cotransfections, 0.2 μg of each of the plasmids were used. Microscopy experiments were carried out 48 h after transfection. […]
(§2) In excitation polarization resolved single-photon laser scanning confocal microscopy, the cells (in the multi-well cover slip) were observed using a single-photon laser scanning confocal microscope Olympus FV1200, modified for excitation-polarization resolved microscopy. […] Fluorescence of wavelengths in the range of 510-610 nm was separated from the excitation light by a long-pass dichroic mirror (DM405/488, Olympus, Japan), diffractive grating, and an adjustable slit, and detected by a photomultiplier. […]
(§3) The resulting images were deconvolved and quantitatively analyzed by following published procedures (Bondar A & al., Communications Biology. 2021 Feb. 12; 4(1):1-2.) that rely on publicly available software tools. […]

[2] = target: T2, activated form of the G-protein Gα13 (Gα13(Q226L)) (Homo sapiens, UniProt Q14344, Q226L); experiment: Polarization microscopy of probe in HEK293 cells, with or without cotransfected Gα13(Q226L); details: cotransfection of Gα13(Q226L) plasmid, excitation polarization resolved single-photon confocal microscopy
T2 construct: expressed in transfected cells; host or cells: HEK293
T2 sequence (Q14344 1-377 Q226L): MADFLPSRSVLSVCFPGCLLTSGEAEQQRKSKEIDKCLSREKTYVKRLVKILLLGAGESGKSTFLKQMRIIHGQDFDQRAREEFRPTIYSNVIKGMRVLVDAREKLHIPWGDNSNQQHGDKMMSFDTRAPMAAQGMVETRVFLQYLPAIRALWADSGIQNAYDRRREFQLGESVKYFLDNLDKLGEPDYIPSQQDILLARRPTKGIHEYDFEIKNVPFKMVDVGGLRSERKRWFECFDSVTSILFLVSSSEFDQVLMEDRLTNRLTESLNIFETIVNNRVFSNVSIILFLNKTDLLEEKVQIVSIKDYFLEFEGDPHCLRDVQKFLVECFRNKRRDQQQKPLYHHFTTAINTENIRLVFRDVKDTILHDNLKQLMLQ
Protocol: as §1, §2, §3

[3] = target: T3, activated form of the small GTPase Rac1 (Rac1(Q61L)) (Homo sapiens, UniProt P63000, Q61L); experiment: Polarization microscopy of probe in HEK293 cells, with or without cotransfected Rac1(Q61L); details: cotransfection of Rac1(Q61L) plasmid, excitation polarization resolved single-photon confocal microscopy
T3 construct: expressed in transfected cells; host or cells: HEK293
Protocol: as §1, §2, §3

[4] = target: T4, activated form of the small GTPase RhoA (RhoA(Q63L)) (Homo sapiens, UniProt P61586, Q63L); experiment: Polarization microscopy of probe in HEK293 cells, with or without cotransfected RhoA(Q63L); details: cotransfection of RhoA(Q63L) plasmid, excitation polarization resolved single-photon confocal microscopy
T4 construct: expressed in transfected cells; host or cells: HEK293
Protocol: as §1, §2, §3

activated form of Gαi1 = target: T5, activated form of Gαi1 (Homo sapiens, UniProt P63096); experiment: Polarization microscopy of probe in HEK293 cells, Gαi1 activated through the α2-adrenergic receptor by norepinephrine; details: HEK293 cells cotransfected with Gαi1, Gβ1, Gγ2 and α2-adrenergic receptor; 10 μM norepinephrine; excitation polarization resolved single-photon confocal microscopy
T5 construct: expressed in transfected cells; host or cells: HEK293
Protocol: as §1, §2, §3

[5] = target: T6, activated form of the G-protein Gαi1 (Gαi1(Q204L)) (Homo sapiens, UniProt P63096, Q204L); experiment: Polarization microscopy of probe in HEK293 cells, with or without cotransfected constitutively activated Gαi1(Q204L); details: cotransfection of Gαi1(Q204L) plasmid
T6 construct: expressed in transfected cells; host or cells: HEK293
Source text: A protein (SEQ ID NO:5) that includes as an anchoring moiety a fragment of the protein h-Ras, a flexible peptide linker (amino acid sequence GSGGSGG (SEQ ID NO:1)), a monomeric enhanced green fluorescent protein (meGFP) as a fluorescent moiety, and an affinity binding peptide KB1753 known to bind the activated form of the G-protein Gαi1 (Johnston C A & al., Structure. 2005 Jul. 1; 13(7):1069-80), was encoded into a DNA sequence (SEQ ID NO:6) and cloned into a mammalian expression vector (pcDNA3.1(+)) under the control of the cytomegalovirus (CMV) promoter. The resulting DNA encoding the probe of invention was transfected into HEK293 cells either alone, or along with DNA encoding the target protein of the probe.
Prior to microscopy observations, mammalian cells (HEK293) were cultured at 37° C. under an atmosphere of 95% air, 5% CO2, in Dulbecco's modified Eagle's medium with Glutamax I and high glucose (Life Technologies), supplemented with 10% fetal bovine serum. Cells were plated on 8-chamber microscopy slides (p-Slides, Ibidi GmbH, Germany). Transfections were carried out using 0.2 μg of plasmid DNA and Lipofectamine 2000 (Life Technologies), according to the protocol of the manufacturer. In cotransfections, 0.2 μg of each of the plasmids were used. Microscopy experiments were carried out 48 h after transfection. Microscopy observations were performed at 37° C., maintained by a heated chamber (iBidi Heating System, iBidi).
The cells were observed by excitation polarization resolved single-photon laser scanning confocal microscopy, by excitation polarization resolved two-photon laser scanning microscopy, by excitation polarization resolved single-photon wide-field fluorescence microscopy, and by fluorescence polarization resolved single-photon laser scanning confocal microscopy.
In excitation polarization resolved single-photon laser scanning confocal microscopy, the cells (in the multi-well cover slip) were observed using a single-photon laser scanning confocal microscope Olympus FV1200, modified for excitation-polarization resolved microscopy. Specifically, the excitation laser beam was passed through an electrooptical polarization modulator (RPM-2P, Innovative Bioimaging, USA) synchronized with the function of the microscope so that the direction of polarization of the laser light was alternated between horizontal and vertical direction (within the image) between acquisition of individual pixels of the image. In order to observe the probes of invention containing the green fluorescent protein (GFP), 488 nm wavelength was used for excitation. Fluorescence of wavelengths in the range of 510-610 nm was separated from the excitation light by a long-pass dichroic mirror (DM405/488, Olympus, Japan), diffractive grating, and an adjustable slit, and detected by a photomultiplier. The samples were imaged by a 40× water immersion lens (UApoN340, NA1.15. Olympus, Japan).
The resulting images were deconvolved and quantitatively analyzed by following published procedures (Bondar A & al., Communications Biology. 2021 Feb. 12; 4(1):1-2.) that rely on publicly available software tools. Briefly, an acquired image, containing in different pixels information on fluorescence intensity excited with distinct polarizations of excitation light was deconvolved into two images, each containing fluorescence intensity excited by one polarization of the excitation light. After background subtraction, an image was generated to show, in each pixel, the base 2 logarithm of the ratio between the values of the corresponding pixels of the images containing information on fluorescence intensity excited with a horizontal and vertical polarization of excitation light. The resulting image was segmented to identify parts that correspond to the cell membrane. […]

GβGγ dimer = target: T7, GβGγ dimer (Homo sapiens, UniProt P59768+P62873); experiment: Polarization microscopy of probe in HEK293 cells, with or without cotransfected GβGγ dimer; details: cotransfection of plasmids encoding the, excitation polarization resolved single-photon confocal microscopy
T7 construct: expressed in transfected cells; host or cells: HEK293
Protocol: as §1, §2, §3

[6] = target: T8, activated form of the β2-adrenergic receptor (Homo sapiens, UniProt P07550, E27Q/G16R); experiment: Polarization microscopy of probe in HEK293 cells, β2-adrenergic receptor activated by norepinephrine; details: cotransfection of β2-adrenergic receptor plasmid and 10 μM norepinephrine, excitation polarization resolved single-photon confocal microscopy
T8 construct: expressed in transfected cells; host or cells: HEK293
Protocol: as §1, §2, §3

[7] = tested on: activated form of the β2-adrenergic receptor; experiment: as above; details: β2-adrenergic receptor is the probe's anchoring moiety, 10 uM norepinephrine, excitation polarization resolved single-photon confocal microscopy
Protocol: as §1, §2, §3

[8] = target: T9, activated form of the insulin receptor 1 (Homo sapiens, UniProt P06213); experiment: Polarization microscopy of probe in HEK293 cells, insulin receptor 1 activated by serum insulin; details: cotransfection of insulin receptor 1 plasmid, activated by 5% fetal bovine serum containing natural levels of insulin, excitation polarization resolved single-photon confocal microscopy
T9 construct: His tag (named His6); expressed in transfected cells; host or cells: HEK293
Protocol: as §1, §2, §3

[9] = excitation polarization resolved single-photon laser scanning confocal microscopy

T6 sequence (P63096 whole entry Q204L): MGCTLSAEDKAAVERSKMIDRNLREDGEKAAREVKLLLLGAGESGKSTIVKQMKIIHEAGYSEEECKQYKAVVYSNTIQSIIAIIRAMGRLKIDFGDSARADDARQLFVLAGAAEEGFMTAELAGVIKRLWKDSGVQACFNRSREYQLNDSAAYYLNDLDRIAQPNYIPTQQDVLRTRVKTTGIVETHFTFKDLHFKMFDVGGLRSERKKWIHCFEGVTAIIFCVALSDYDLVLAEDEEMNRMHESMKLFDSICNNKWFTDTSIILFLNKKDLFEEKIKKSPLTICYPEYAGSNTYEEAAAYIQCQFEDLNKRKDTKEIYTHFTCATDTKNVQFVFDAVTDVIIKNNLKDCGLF
T1 sequence (P35372 whole entry): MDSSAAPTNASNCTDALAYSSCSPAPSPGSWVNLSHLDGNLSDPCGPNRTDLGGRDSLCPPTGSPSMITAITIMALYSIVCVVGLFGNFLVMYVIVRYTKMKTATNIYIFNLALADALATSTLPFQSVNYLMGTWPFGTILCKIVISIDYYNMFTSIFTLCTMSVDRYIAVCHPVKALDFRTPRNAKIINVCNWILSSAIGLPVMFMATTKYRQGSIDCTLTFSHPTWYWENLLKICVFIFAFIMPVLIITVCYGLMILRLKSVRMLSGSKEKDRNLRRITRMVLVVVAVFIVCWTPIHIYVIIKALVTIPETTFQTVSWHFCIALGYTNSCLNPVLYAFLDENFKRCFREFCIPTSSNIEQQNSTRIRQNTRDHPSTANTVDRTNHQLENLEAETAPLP
T9 sequence (P06213 with tags, fused parts or gaps isoform P06213-2): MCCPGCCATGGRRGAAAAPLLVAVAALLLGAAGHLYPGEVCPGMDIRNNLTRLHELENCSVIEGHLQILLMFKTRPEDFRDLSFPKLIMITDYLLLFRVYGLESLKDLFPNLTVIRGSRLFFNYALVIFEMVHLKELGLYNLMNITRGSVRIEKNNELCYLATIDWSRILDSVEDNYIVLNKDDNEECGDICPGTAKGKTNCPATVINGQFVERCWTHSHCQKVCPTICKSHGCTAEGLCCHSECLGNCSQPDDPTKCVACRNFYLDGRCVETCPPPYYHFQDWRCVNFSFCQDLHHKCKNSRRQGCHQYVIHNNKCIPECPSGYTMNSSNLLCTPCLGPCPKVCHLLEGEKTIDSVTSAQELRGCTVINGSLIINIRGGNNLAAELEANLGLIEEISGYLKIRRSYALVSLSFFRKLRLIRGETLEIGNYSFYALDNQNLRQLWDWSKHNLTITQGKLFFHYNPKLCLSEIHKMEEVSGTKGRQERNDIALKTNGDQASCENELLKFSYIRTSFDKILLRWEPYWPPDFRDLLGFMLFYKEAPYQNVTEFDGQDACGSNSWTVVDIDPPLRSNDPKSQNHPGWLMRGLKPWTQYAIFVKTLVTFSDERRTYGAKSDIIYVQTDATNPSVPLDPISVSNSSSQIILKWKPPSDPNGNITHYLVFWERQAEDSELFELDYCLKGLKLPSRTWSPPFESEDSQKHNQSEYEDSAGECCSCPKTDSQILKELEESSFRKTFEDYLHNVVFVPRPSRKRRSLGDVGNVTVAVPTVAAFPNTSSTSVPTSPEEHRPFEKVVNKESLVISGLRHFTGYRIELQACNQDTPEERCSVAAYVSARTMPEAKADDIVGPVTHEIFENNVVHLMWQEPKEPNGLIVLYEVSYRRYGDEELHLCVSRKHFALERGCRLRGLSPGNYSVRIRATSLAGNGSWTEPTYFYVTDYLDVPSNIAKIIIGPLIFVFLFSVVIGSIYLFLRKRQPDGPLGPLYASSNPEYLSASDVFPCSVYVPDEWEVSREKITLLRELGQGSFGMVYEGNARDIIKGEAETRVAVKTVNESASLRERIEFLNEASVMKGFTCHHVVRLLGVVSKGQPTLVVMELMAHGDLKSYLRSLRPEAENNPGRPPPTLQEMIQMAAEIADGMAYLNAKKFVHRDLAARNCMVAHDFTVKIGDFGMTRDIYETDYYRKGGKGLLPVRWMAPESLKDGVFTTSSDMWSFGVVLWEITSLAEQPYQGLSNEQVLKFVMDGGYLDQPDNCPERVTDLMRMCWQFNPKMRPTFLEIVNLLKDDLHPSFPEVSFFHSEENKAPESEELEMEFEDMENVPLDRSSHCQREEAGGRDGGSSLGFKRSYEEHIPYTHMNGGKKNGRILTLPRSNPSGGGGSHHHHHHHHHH
T7 sequence (P62873 2-340 limits assumed): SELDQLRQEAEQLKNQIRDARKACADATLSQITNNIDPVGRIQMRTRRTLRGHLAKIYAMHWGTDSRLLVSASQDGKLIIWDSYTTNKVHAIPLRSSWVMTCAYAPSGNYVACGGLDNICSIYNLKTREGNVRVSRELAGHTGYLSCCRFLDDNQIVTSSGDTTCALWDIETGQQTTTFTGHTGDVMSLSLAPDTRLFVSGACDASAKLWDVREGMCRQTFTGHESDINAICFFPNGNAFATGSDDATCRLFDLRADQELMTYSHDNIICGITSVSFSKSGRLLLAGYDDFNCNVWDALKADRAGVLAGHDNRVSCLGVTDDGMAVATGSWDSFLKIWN
T7 sequence (P59768 2-68 limits assumed): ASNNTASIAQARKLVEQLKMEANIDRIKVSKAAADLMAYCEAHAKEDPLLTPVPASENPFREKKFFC
T5 sequence (P63096 whole entry): as the sequence (P63096 whole entry Q204L) above, with L204Q counted along it
T4 sequence (P61586 whole entry Q63L): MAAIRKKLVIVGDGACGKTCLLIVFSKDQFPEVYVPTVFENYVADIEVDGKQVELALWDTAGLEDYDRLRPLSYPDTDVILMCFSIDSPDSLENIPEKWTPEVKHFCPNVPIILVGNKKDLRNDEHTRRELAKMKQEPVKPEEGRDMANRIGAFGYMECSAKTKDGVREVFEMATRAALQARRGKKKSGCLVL

NB33-meGFP-GSGGSGG-hRas [Example 15]
linear dichroism of the fluorescent moiety of the probe in presence of its target molecule compared with absence [1]: statistically significantly lower

GAP43-SSGSSGTG-meGFP-PRGrh [Example 19]
linear dichroism of the fluorescent moiety of the probe in presence of its target molecule compared with absence [2]: statistically significantly lower

GAP43-SSGSSGTG-meGFP-Δ6-PAK1 [Example 21]
linear dichroism of the fluorescent moiety of the probe in presence of its target molecule compared with absence [3]: statistically significantly lower

rhotekin-meGFP-GSGGSGG-hRas [Example 20]
linear dichroism of the fluorescent moiety of the probe in presence of its target molecule compared with absence [4]: statistically significantly higher

KB1753-meGFP-GSGGSGG-hRas [Example 1]
linear dichroism of the fluorescent moiety of the probe in presence of activated Gαi1 compared with absence (activated form of Gαi1): statistically significantly higher
linear dichroism of the fluorescent moiety of the probe in presence of its target molecule compared with absence ([5]; excitation polarization resolved single-photon confocal, two-photon and wide-field microscopy, FIG. 2A): statistically significantly higher
fluorescence polarization of the fluorescent moiety of the probe in presence of its target molecule compared with absence ([5]; fluorescence polarization resolved single-photon laser scanning confocal microscopy, FIG. 2A): statistically significantly higher

GAP43-SSGSSGTG-meGFP-NB33 [Example 16]
linear dichroism of the fluorescent moiety of the probe in presence of its target molecule compared with absence [1]: statistically significantly lower

GAP43-SSGSSGTG-meGFP-GRK2ct [Example 17]
linear dichroism of the fluorescent moiety of the probe in presence of its target molecule compared with absence (GβGγ dimer): statistically significantly lower

KB1753-meGFP-GSGGSGG-kRas [Example 3]
linear dichroism of the fluorescent moiety of the probe in presence of its target molecule compared with absence [5, 9]: statistically significantly higher

NB80-meGFP-GSGGSGG-hRas [Example 13]
linear dichroism of the fluorescent moiety of the probe in presence of its target molecule compared with absence [6]: statistically significantly lower

β2AR-SSGSSGTG-meGFP-NB80 [Example 14]
linear dichroism of the fluorescent moiety of the probe in presence of its target molecule compared with absence [7]: statistically significantly higher

KB1753-cpmTurquoise2-GSGGSGG-hRas [Example 9]
linear dichroism of the fluorescent moiety of the probe in presence of its target molecule compared with absence [5, 9]: statistically significantly higher

GAP43-SSGSSGTG-meGFP-IRS1 [Example 22]
linear dichroism of the fluorescent moiety of the probe in presence of its target molecule compared with absence [8]: statistically significantly lower

GAP43-SSGSSGTG-meGFP-KB1753 [Example 4]
linear dichroism of the fluorescent moiety of the probe in presence of its target molecule compared with absence [5, 9]: statistically significantly higher

IL4R-SSGSSGTG-meGFP-KB1753 [Example 5]
linear dichroism of the fluorescent moiety of the probe in presence of its target molecule compared with absence [5, 9]: statistically significantly higher

KB1753-meGFP-GS24-hRas [Example 6]
linear dichroism of the fluorescent moiety of the probe in presence of its target molecule compared with absence [5, 9]: statistically significantly higher
